From the supplement of paper PMC10724198
± gives the standard deviation of the averaged measurements.

What follows are sequences tested on Saccharomyces cerevisiae (assay: protein stability index of tFT-peptide fusion (C-terminal peptide) (PSI (0-1 scale)); higher = more stable (slower turnover)). Settings: genetic background: wild type; temperature: 30 C.
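Note: PSI is a weighted mean of sequencing reads over stability bins, variants kept only with over 10 reads, mCherry proximal and sfGFP distal, peptide attached via GGGS linker.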

| Sequence | protein stability index |
| --- | --- |
| PPLPFARAPHCP | 0.732 ± 0.059 |
| PPLPHQPSHPIS | 0.672 ± 0.053 |
| PPLPLPPPHPPP | 0.503 ± 0.047 |
| PPLPPLPLPNPP | 0.676 ± 0.064 |
| PPLPPLPSPLPL | 0.674 ± 0.014 |
| PPLPPLRPIRSP | 0.702 ± 0.035 |
| PPLPPPLLPSSS | 0.711 ± 0.12 |
| PPLPPPLSLPPP | 0.657 ± 0.06 |
| PPLPPPPPPFPP | 0.5534 ± 0.0012 |
| PPLPPPSVPPPC | 0.716 ± 0.012 |
| PPLPPSLPGSSL | 0.642 ± 0.053 |
| PPLPPSPRLLPP | 0.635 ± 0.056 |
| PPLPRPSLPPLP | 0.676 ± 0.054 |
| PPLPSFILSPRA | 0.705 ± 0.027 |
| PPLPSGLHPTLT | 0.6932 ± 0.0052 |
| PPLPSTAPPSPL | 0.735 ± 0.0096 |
| PPLPTPPPPPDP | 0.662 ± 0.052 |
| PPLRFFPPVSSH | 0.667 ± 0.014 |
| PPLRPPPLHPPR | 0.705 ± 0.036 |
| PPLRPPPPPPPP | 0.668 ± 0.072 |
| PPLRPRCSPAPR | 0.706 ± 0.01 |
| PPLRQLTIPLTH | 0.723 ± 0.0088 |
| PPLSPPPLPAAP | 0.724 ± 0.03 |
| PPLSPPPSASSS | 0.738 ± 0.065 |
| PPLSSPPSLSPP | 0.703 ± 0.049 |
| PPLTSSPPFSPP | 0.728 ± 0.09 |

| Sequence | protein stability index |
| --- | --- |
| PPLYPPPRDLPP | 0.5453 ± 0.0038 |
| PPNPLHPPPSRP | 0.653 ± 0.044 |
| PPNPPPNPPSRY | 0.738 ± 0.047 |
| PPPALVPRPPPR | 0.679 ± 0.0084 |
| PPPAPPCFAPFP | 0.673 ± 0.019 |
| PPPAPPPLPTSP | 0.771 ± 0.095 |
| PPPAPPPPHSLV | 0.717 ± 0.057 |
| PPPDPPLHHNLP | 0.693 ± 0.036 |
| PPPFPPPSFASR | 0.696 ± 0.057 |
| PPPFPYRTALLP | 0.708 ± 0.016 |
| PPPGAPAPPPSS | 0.692 ± 0.12 |
| PPPGCRPSPPLP | 0.683 ± 0.069 |
| PPPGLPPPLPPS | 0.767 ± 0.015 |
| PPPGRRRLRGPT | 0.705 ± 0.04 |
| PPPHPPPPASPP | 0.653 ± 0.034 |
| PPPHPSPSRRSS | 0.681 ± 0.029 |
| PPPHVPPPPSSL | 0.711 ± 0.023 |
| PPPIYTPPPPPL | 0.697 ± 0.053 |
| PPPKRTPTPQCP | 0.702 ± 0.078 |
| PPPLAPPTSLRF | 0.715 ± 0.075 |
| PPPLFPPSSLLP | 0.706 ± 0.033 |
| PPPLLSAPPHCE | 0.684 ± 0.052 |
| PPPLPLLPSSPL | 0.685 ± 0.013 |
| PPPLPLPSPPPS | 0.664 ± 0.08 |
| PPPLPPAPPSPP | 0.703 ± 0.19 |
| PPPLPPLPPPTL | 0.698 ± 0.045 |

| Sequence | protein stability index |
| --- | --- |
| PPPLPPPLILTP | 0.643 ± 0.054 |
| PPPLPPPPAPPY | 0.734 ± 0.018 |
| PPPLPPPPASPP | 0.685 ± 0.01 |
| PPPLPPPTPLSP | 0.5736 ± 0.0043 |
| PPPLPPQTLTFC | 0.729 ± 0.075 |
| PPPLPSAPPTGT | 0.706 ± 0.026 |
| PPPLPSPPPRLP | 0.693 ± 0.014 |
| PPPLRFLSFPPS | 0.661 ± 0.057 |
| PPPLRPPPPPLP | 0.645 ± 0.021 |
| PPPLSCPSRPSL | 0.526 ± 0.12 |
| PPPLSFPSVYLT | 0.75 ± 0.12 |
| PPPLSPSFIPPP | 0.698 ± 0.042 |
| PPPLTPPTCLPP | 0.644 ± 0.013 |
| PPPMSVAVFPFG | 0.678 ± 0.03 |
| PPPNSPPRPPLS | 0.7035 ± 0.0046 |
| PPPPALIHSRPP | 0.7406 ± 0.0045 |
| PPPPARSPLTPL | 0.725 ± 0.15 |
| PPPPDLPYPLPL | 0.754 ± 0.025 |
| PPPPFLPVLLFP | 0.696 ± 0.08 |
| PPPPFPPPPPHS | 0.719 ± 0.039 |
| PPPPGPPPPSSL | 0.6914 ± 0.006 |
| PPPPLCPPPLSF | 0.638 ± 0.016 |
| PPPPLPAPLSPA | 0.651 ± 0.021 |
| PPPPLRPHHLTS | 0.696 ± 0.021 |
| PPPPLRSPPRSF | 0.713 ± 0.02 |
| PPPPLSPPPAPA | 0.682 ± 0.048 |

| Sequence | protein stability index |
| --- | --- |
| PPPPPAPLLLLP | 0.78 ± 0.1 |
| PPPPPAPPPVSI | 0.659 ± 0.071 |
| PPPPPASTPASS | 0.6808 ± 0.0013 |
| PPPPPHALSPPP | 0.664 ± 0.011 |
| PPPPPHTSPSPT | 0.744 ± 0.042 |
| PPPPPLGPLPAL | 0.688 ± 0.012 |
| PPPPPLLPPPPA | 0.721 ± 0.02 |
| PPPPPLLPPSLR | 0.671 ± 0.073 |
| PPPPPLPALPHL | 0.627 ± 0.023 |
| PPPPPLPHPVPP | 0.6206 ± 0.005 |
| PPPPPLPPPPSP | 0.656 ± 0.052 |
| PPPPPLPPPTPP | 0.568 ± 0.024 |
| PPPPPLPRALST | 0.72 ± 0.044 |
| PPPPPLQRFPPF | 0.644 ± 0.046 |
| PPPPPLSLPPPA | 0.693 ± 0.024 |
| PPPPPLSPPPRP | 0.68631 ± 0.00031 |
| PPPPPLSSPPSP | 0.652 ± 0.049 |
| PPPPPPAASSSP | 0.692 ± 0.047 |
| PPPPPPFLPRLP | 0.721 ± 0.14 |
| PPPPPPFPSSPP | 0.698 ± 0.013 |
| PPPPPPLSPPSP | 0.659 ± 0.012 |
| PPPPPPPPAPPS | 0.68 ± 0.035 |
| PPPPPPPPPCHL | 0.644 ± 0.078 |
| PPPPPPPPPDPA | 0.666 ± 0.013 |
| PPPPPPPPPLFP | 0.703 ± 0.022 |
| PPPPPPPPPSFP | 0.65 ± 0.0086 |

| Sequence | protein stability index |
| --- | --- |
| PPPPPPPPRLTF | 0.698 ± 0.094 |
| PPPPPPSPHPPL | 0.709 ± 0.01 |
| PPPPPPSPPPPP | 0.713 ± 0.038 |
| PPPPPPTPDPLA | 0.666 ± 0.048 |
| PPPPPRPPPPAP | 0.5949 ± 0.0051 |
| PPPPPRPPRLLS | 0.651 ± 0.1 |
| PPPPPSPDSNLF | 0.733 ± 0.067 |
| PPPPPSPLPPRP | 0.624 ± 0.045 |
| PPPPPSPRALLP | 0.657 ± 0.028 |
| PPPPPVLPPRPP | 0.713 ± 0.075 |
| PPPPRHPAAAPP | 0.7668 ± 0.0075 |
| PPPPRSPPLPRL | 0.743 ± 0.061 |
| PPPPRSPSLLSP | 0.651 ± 0.059 |
| PPPPTPPPHSPP | 0.656 ± 0.022 |
| PPPPTPPPRTSP | 0.739 ± 0.063 |
| PPPPVFPQPTPA | 0.6425 ± 0.0023 |
| PPPPVPSLLLLS | 0.579 ± 0.019 |
| PPPRFCSLPDHL | 0.636 ± 0.049 |
| PPPRHSPRPPCI | 0.746 ± 0.11 |
| PPPRLPPPPHAL | 0.795 ± 0.044 |
| PPPRLPPPPPPP | 0.679 ± 0.048 |
| PPPRPAPPSSHS | 0.641 ± 0.044 |
| PPPRPHPTRLSY | 0.576 ± 0.054 |
| PPPRPPPLPSPV | 0.616 ± 0.0093 |
| PPPRPPPPLSHS | 0.632 ± 0.04 |
| PPPRPRSLTCPA | 0.73 ± 0.14 |

| Sequence | protein stability index |
| --- | --- |
| PPPRPSPPPSRP | 0.684 ± 0.021 |
| PPPRSPRSLPPL | 0.676 ± 0.017 |
| PPPSCPLSPPRL | 0.668 ± 0.0046 |
| PPPSLPFPPPHP | 0.6827 ± 0.0029 |
| PPPSPALPLPPY | 0.712 ± 0.019 |
| PPPSPFLPPRAP | 0.709 ± 0.051 |
| PPPSPLLLFPPL | 0.645 ± 0.11 |
| PPPSPPLPPFSL | 0.7056 ± 0.00078 |
| PPPSPPLPPPLL | 0.696 ± 0.05 |
| PPPSPPPPPLLP | 0.6508 ± 0.0016 |
| PPPSPPPTSNPN | 0.742 ± 0.04 |
| PPPSPPPYRLPP | 0.7 ± 0.016 |
| PPPSPPSTTPPL | 0.672 ± 0.07 |
| PPPSPPTAPAAP | 0.713 ± 0.038 |
| PPPSPTPGHPQL | 0.718 ± 0.044 |
| PPPTDSQTTWHP | 0.705 ± 0.018 |
| PPPTPAPLLVPS | 0.598 ± 0.0091 |
| PPPTPPPGTYSL | 0.579 ± 0.011 |
| PPPTPPSPPRPH | 0.71 ± 0.068 |
| PPPTRPSQAPHL | 0.645 ± 0.11 |
| PPPTSPRSPVPI | 0.697 ± 0.021 |
| PPPVPPTPFLTR | 0.744 ± 0.11 |
| PPPVPTRPSPPP | 0.6737 ± 0.0047 |
| PPPYDPPRPLPR | 0.7209 ± 0.0027 |
| PPRAPPPPVPPL | 0.598 ± 0.03 |
| PPRLAPPDPSLL | 0.673 ± 0.022 |

| Sequence | protein stability index |
| --- | --- |
| PPRLHPAPPPRT | 0.747 ± 0.033 |
| PPRLPLSHPPEP | 0.634 ± 0.022 |
| PPRLRSPTPFLL | 0.755 ± 0.027 |
| PPRLSPAPPASP | 0.605 ± 0.009 |
| PPRPPHPAPSPH | 0.638 ± 0.024 |
| PPRPPPPPLRST | 0.758 ± 0.078 |
| PPRPPSPLPLPP | 0.687 ± 0.016 |
| PPRPSLLPRALF | 0.642 ± 0.041 |
| PPRPSPPLSPLP | 0.72 ± 0.042 |
| PPRVSLLSPPPP | 0.693 ± 0.034 |
| PPRVSLLTPSPR | 0.853 ± 0.21 |
| PPSASLAPFLSP | 0.722 ± 0.12 |
| PPSLPLLPPHPP | 0.562 ± 0.011 |
| PPSLRVVMVVGR | 0.611 ± 0.056 |
| PPSMRQRKRSGP | 0.746 ± 0.028 |
| PPSPAPLHPSTS | 0.661 ± 0.047 |
| PPSPAPPPASPP | 0.651 ± 0.035 |
| PPSPCRTHRLYI | 0.629 ± 0.022 |
| PPSPLAPPLPPP | 0.709 ± 0.036 |
| PPSPLPPAPPSP | 0.668 ± 0.029 |
| PPSPPDLPPHPP | 0.618 ± 0.027 |
| PPSPPPPPKIPP | 0.627 ± 0.055 |
| PPSPPPPPPPTP | 0.699 ± 0.043 |
| PPSPPPPPSSPP | 0.707 ± 0.071 |
| PPSPPPPRPSFP | 0.713 ± 0.0096 |
| PPSPPRPPTSFL | 0.608 ± 0.057 |

| Sequence | protein stability index |
| --- | --- |
| PPSPPSPPPPLP | 0.69 ± 0.012 |
| PPSPPTPPPPLP | 0.66 ± 0.0085 |
| PPSPRPPRPLFA | 0.664 ± 0.021 |
| PPSPYNPPSTAN | 0.722 ± 0.0091 |
| PPSRDRATSPSE | 0.656 ± 0.023 |
| PPSRNPPDLDTQ | 0.682 ± 0.14 |
| PPSSFHFVVPHP | 0.684 ± 0.054 |
| PPSTFDPSTLRP | 0.665 ± 0.041 |
| PPSTSPTLTSAR | 0.722 ± 0.016 |
| PPSVLPLPPSLP | 0.732 ± 0.043 |
| PPSVPPPLPHPV | 0.74 ± 0.037 |
| PPTFPPPLPLPP | 0.692 ± 0.031 |
| PPTGHAPSRALT | 0.676 ± 0.091 |
| PPTPAPLSPPYV | 0.712 ± 0.026 |
| PPTSLRFRPPYC | 0.682 ± 0.046 |
| PPVAPTPFPPPS | 0.684 ± 0.018 |
| PPVFYAPLVTER | 0.7 ± 0.035 |
| PPVPPPAPPHPR | 0.753 ± 0.14 |
| PPVPPPLPYLPP | 0.624 ± 0.031 |
| PPVPRSPPPRRS | 0.719 ± 0.12 |
